Substrate in this series: NC(=O)CC[C@H](N)C(=O)O
As to the kind of experiment: purified protein. Type of series: biochemical, Bacillus subtilis. The settings on record: 10–100 mM L-glutamine, 20 mM potassium phosphate, pH 7.5, 37°C, no NaCl.

B1: EAK16-E3C/E55F/D213T (Bacillus subtilis subsp. subtilis str. 168; D213T/E3C/E55F) (protein)
chain: KCLIKEHQKDINPALQLHDWVEYYRPFAANGQSANYIPALGKVNDSQLGICVLFPDGTMIHAGDWNVSFTMQSISKVISFIAACMSRGIPYVLDRVDVEPTGDAFNSIIRLEINKPGKPFNPMINAGALTIASILPGESAYEKLEFLYSVMETLIGKRPRIHEEVFRSEWETAHRNRALAYYLKETNFLEAEVEETLEVYLKQCAMESTTETIALIGLILAHDGYHPIRHEQVIPKDVAKLAKALMLTCGMYNASGKYAAFVGVPAKSGVSGGIMALVPPSARREQPFQSGCGIGIYGPAIDEYGNSLTGGMLLKHMAQEWELSIF
notes: N-terminal His-tag, designed peptide EAK16 (…) and PT linker (…) fused to N-terminus of triple mutant; expressed in B. subtilis WB600; oligomerises
For orientation: Km means the substrate concentration at which the rate is half of its maximum. As usually defined, the kcat/Km is the turnover number divided by the Michaelis constant. Turning to B1, the Km came to 18.45 ± 1.2 mM and the kcat/Km is 174000 ± 4200 M⁻¹ s⁻¹.

B2: E3C/E55F/D213T (Bacillus subtilis subsp. subtilis str. 168; D213T/E3C/E55F) (protein)
chain: MKCLIKEHQKDINPALQLHDWVEYYRPFAANGQSANYIPALGKVNDSQLGICVLFPDGTMIHAGDWNVSFTMQSISKVISFIAACMSRGIPYVLDRVDVEPTGDAFNSIIRLEINKPGKPFNPMINAGALTIASILPGESAYEKLEFLYSVMETLIGKRPRIHEEVFRSEWETAHRNRALAYYLKETNFLEAEVEETLEVYLKQCAMESTTETIALIGLILAHDGYHPIRHEQVIPKDVAKLAKALMLTCGMYNASGKYAAFVGVPAKSGVSGGIMALVPPSARREQPFQSGCGIGIYGPAIDEYGNSLTGGMLLKHMAQEWELSIF
notes: full-length triple mutant, N-terminal His-tag kept, expressed in B. subtilis WB600 (pP43NMK), about 40 kDa
Usually kcat stands for the number of substrate molecules converted per active site and unit of time at saturation. On to B2, for which the Km worked out at 22.72 ± 1.5 mM, the kcat amounted to 3730 ± 190 s⁻¹ and the kcat/Km was 162000 ± 3240 M⁻¹ s⁻¹.

The values above are taken from publication PMC9490022, “Enhanced salt-tolerance of Bacillus subtilis glutaminase by fusing self-assembling amphipathic peptides at its N-terminus” (Frontiers in Bioengineering and Biotechnology, 2022).
